Target: Blinkin (UniProt Q8NG31)
Test: GST pull-down from mitotic lysate
Conditions: sites Y207

Substance	binding against the reference (reference: GST-Bub3 WT without His-PKM2)	binding against the reference (reference: GST-Bub3 WT with His-PKM2, no PEP)	binding against the reference (reference: GST-Bub3 WT, PEP, no His-PKM2)
Bub3 (from UniProt O43684) GST-Bub3 WT incubated with His-PKM2	stronger	–	–
Bub3 (from UniProt O43684) GST-Bub3 WT with His-PKM2 and PEP	–	stronger	stronger

From publication PMC3955203
